Results published in patent US20220298218A1 (ANTAG THERAPEUTICS, published 2022).
Where no end group is shown, it is not given here. The star is where a group is joined. C16 diacid = O=C(O)CCCCCCCCCCCCCCC(=O)*

T1: human GIP receptor (human, UniProt P48546 22-466)
T1 sequence (looked up): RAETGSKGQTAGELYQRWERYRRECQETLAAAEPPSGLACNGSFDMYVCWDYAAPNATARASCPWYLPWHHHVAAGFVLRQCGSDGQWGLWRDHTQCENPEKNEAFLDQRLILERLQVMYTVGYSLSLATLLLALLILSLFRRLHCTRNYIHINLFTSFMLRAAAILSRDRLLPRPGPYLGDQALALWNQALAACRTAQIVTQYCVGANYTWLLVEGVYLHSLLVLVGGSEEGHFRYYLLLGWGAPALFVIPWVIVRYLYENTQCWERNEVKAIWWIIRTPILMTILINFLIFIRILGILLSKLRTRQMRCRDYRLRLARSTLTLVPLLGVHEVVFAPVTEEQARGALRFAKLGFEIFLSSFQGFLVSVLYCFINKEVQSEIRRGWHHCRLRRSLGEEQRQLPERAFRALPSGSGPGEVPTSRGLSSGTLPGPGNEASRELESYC

B1: AT465 (peptide)
peptide: FISDYSIAMDKIK(C16 diacid)QQDFVNWLLAQKGKKNDWKHN-OH
modifications: N-terminus assumed
SMILES: CC[C@H](C)[C@H](NC(=O)[C@H](CO)NC(=O)[C@H](Cc1ccc(O)cc1)NC(=O)[C@H](CC(=O)O)NC(=O)[C@H](CO)NC(=O)[C@@H](NC(=O)[C@@H](N)Cc1ccccc1)[C@@H](C)CC)C(=O)N[C@@H](C)C(=O)N[C@@H](CCSC)C(=O)N[C@@H](CC(=O)O)C(=O)N[C@@H](CCCCN)C(=O)N[C@H](C(=O)N[C@@H](CCCCNC(=O)CCCCCCCCCCCCCCC(=O)O)C(=O)N[C@@H](CCC(N)=O)C(=O)N[C@@H](CCC(N)=O)C(=O)N[C@@H](CC(=O)O)C(=O)N[C@@H](Cc1ccccc1)C(=O)N[C@H](C(=O)N[C@@H](CC(N)=O)C(=O)N[C@@H](Cc1c[nH]c2ccccc12)C(=O)N[C@@H](CC(C)C)C(=O)N[C@@H](CC(C)C)C(=O)N[C@@H](C)C(=O)N[C@@H](CCC(N)=O)C(=O)N[C@@H](CCCCN)C(=O)NCC(=O)N[C@@H](CCCCN)C(=O)N[C@@H](CCCCN)C(=O)N[C@@H](CC(N)=O)C(=O)N[C@@H](CC(=O)O)C(=O)N[C@@H](Cc1c[nH]c2ccccc12)C(=O)N[C@@H](CCCCN)C(=O)N[C@@H](Cc1c[nH]cn1)C(=O)N[C@@H](CC(N)=O)C(=O)O)C(C)C)[C@@H](C)CC
B2: AT464 (peptide)
peptide: FISDYSIAMDKIK(C16 diacid)QQDFVNWLLAQKGKKNDW-OH
modifications: N-terminus assumed
SMILES: CC[C@H](C)[C@H](NC(=O)[C@H](CO)NC(=O)[C@H](Cc1ccc(O)cc1)NC(=O)[C@H](CC(=O)O)NC(=O)[C@H](CO)NC(=O)[C@@H](NC(=O)[C@@H](N)Cc1ccccc1)[C@@H](C)CC)C(=O)N[C@@H](C)C(=O)N[C@@H](CCSC)C(=O)N[C@@H](CC(=O)O)C(=O)N[C@@H](CCCCN)C(=O)N[C@H](C(=O)N[C@@H](CCCCNC(=O)CCCCCCCCCCCCCCC(=O)O)C(=O)N[C@@H](CCC(N)=O)C(=O)N[C@@H](CCC(N)=O)C(=O)N[C@@H](CC(=O)O)C(=O)N[C@@H](Cc1ccccc1)C(=O)N[C@H](C(=O)N[C@@H](CC(N)=O)C(=O)N[C@@H](Cc1c[nH]c2ccccc12)C(=O)N[C@@H](CC(C)C)C(=O)N[C@@H](CC(C)C)C(=O)N[C@@H](C)C(=O)N[C@@H](CCC(N)=O)C(=O)N[C@@H](CCCCN)C(=O)NCC(=O)N[C@@H](CCCCN)C(=O)N[C@@H](CCCCN)C(=O)N[C@@H](CC(N)=O)C(=O)N[C@@H](CC(=O)O)C(=O)N[C@@H](Cc1c[nH]c2ccccc12)C(=O)O)C(C)C)[C@@H](C)CC

Target: T1, human GIP receptor
Experiment: cell-based or functional assay

Binder | cAMP antagonism | cAMP antagonism % inhib | cAMP antagonism log
B1 | 28 nM | 86% | -7.6 log M
B2 | 50 nM | 100% | -7.3 log M
